# Paper PMC8084935
# Target: FITC-labeled McrA peptide (GG-…) (Methanothermobacter sp. CaT2)
# Test: fluorescence polarisation
substance,measurement,value
"MtYcaO (YcaO from Methanothermobacter sp. CaT2), MBP-His tag cut in the assay mixture (enzyme)",Kd,7 µM
